{"source": "paper PMC6476477", "about": "“A DNA aptamer reveals an allosteric site for inhibition in metallo-β-lactamases”", "conditions_in_all_cases": "protein: recombinant; tags: none stated; hairpin (M-fold predicted)", "key": {"[1]": {"target": "T1, 5/B/6 metallo-beta-lactamase (MBL) wild type (Bacillus cereus 5/B/6, UniProt P14488 30-256)", "T1 sequence": "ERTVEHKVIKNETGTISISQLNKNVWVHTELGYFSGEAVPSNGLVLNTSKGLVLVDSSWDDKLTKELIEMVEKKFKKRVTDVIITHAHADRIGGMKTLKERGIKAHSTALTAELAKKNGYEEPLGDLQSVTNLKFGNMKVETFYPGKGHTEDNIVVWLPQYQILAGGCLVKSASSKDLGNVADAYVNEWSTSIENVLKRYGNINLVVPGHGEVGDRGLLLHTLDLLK", "assay": "enzyme inhibition kinetics (uncompetitive KI'); cefuroxime substrate; NMR: 20 mM MOPS, 1 mM ZnSO4, pH 7, 25 C (buffer stated for assignment sample; titration at 25 C); kinetic assay buffer not in the material"}, "[2]": {"target": "T1, 5/B/6 metallo-beta-lactamase (MBL) wild …", "assay": "enzyme inhibition; cefuroxime substrate; NMR: 20 mM MOPS, 1 mM ZnSO4, pH 7, 25 C (buffer stated for assignment sample; titration at 25 C); kinetic assay buffer not in the material"}, "[3]": {"target": "T1, 5/B/6 metallo-beta-lactamase (MBL) wild …", "assay": "NMR 1H-15N HSQC titration; 750 uM enzyme, 0-4 eq 10-mer; range of fits for Lys78, Lys104, Lys107; 1 mM Zn2+ (NMR buffer); NMR: 20 mM MOPS, 1 mM ZnSO4, pH 7, 25 C (buffer stated for assignment sample; titration at 25 C); kinetic assay buffer not in the material"}}}
{"binder": "CCAAACTTGG (structured_DNA)", "note": "[10-mer DNA aptamer]", "values": [{"measurement": "Ki", "setting": "[1]", "value": "63 ± 3", "unit": "nM"}, {"measurement": "IC50", "setting": "[2]", "value": "120 ± 5", "unit": "nM"}, {"measurement": "Kd", "setting": "[3]", "value": 153, "unit": "nM"}]}
